Source: doi:10.1101/2024.03.03.583237 (bioRxiv, 2024)

Columns and labels:
Experiment in all cases: live-cell binding assay
[1] = molecular target: SARS-CoV-2 NTD-mFc (SARS-CoV-2 Wuhan-Hu-1 (NC_045512), UniProt P0DTC2)
[2] = molecular target: RaTG13 NTD-mFc (Bat coronavirus RaTG13, UniProt A0ABF7PLN6)
[3] = molecular target: ZC45 NTD-mFc (Bat SARS-like coronavirus ZC45 …, UniProt A0A2R3SUW7)
[4] = molecular target: SARS-CoV-1 NTD-mFc (SARS-CoV-1 (NC_004718, Tor2), UniProt P59594)

B1: S2L20-CVR (scFv, V domains shown)
VH: EVQLVESGGGVVQPGGSLRLSCAASGFTFNSYGMHWVRQAPGKGLEWVAFIRYDGGNKYYADSVKGRFTISRDNSKNTLYLQMKSLRAEDTAVYYCANLKDSRYSGSYYDYWGQGTLVTVS
VL: not shown
- binding result [1]: binds
- binding result [2]: binds
- binding result [3]: no binding
- binding result [4]: no binding
